From publication PMC10138348, “Continuous Fluorescent Sirtuin Activity Assay Based on Fatty Acylated Lysines” (International Journal of Molecular Sciences, 2023) come the findings set out here.

By Kd is commonly meant the free concentration of one partner at which half of the binding sites on the other are occupied at equilibrium, for simple one-to-one binding.

The target in assay [1] is F4, TNFα-derived peptide with a myristoylated lysine and fluorescein-labelled cysteine in the +2 position. As to the kind of experiment: fluorescence polarisation; BSA in serial dilution from 752 µM, labelled peptide fixed; 384-well plate, 20 mM Tris-HCl pH 7.8, 150 mM NaCl, 5 mM MgCl2; three independent replicates. (In general: Polarisation of emitted light reports the rotation of a fluorescent probe.)

The target in assay [2] is F6, deacylated fluorescein-labelled peptide product of F4 (fluorophore in +2 position). The description is as above.
In assay [3] the target is F4, TNFα-derived peptide with a myristoylated lysine and fluorescein-labelled cysteine in the +2 position. As to the kind of experiment: other fluorescence titration; fluorescence spectra of the labelled peptide with increasing concentrations of BSA; excitation 490 nm, relative intensity at 517 nm against BSA concentration; n = 1.
Assay [4] deals with F6, deacylated fluorescein-labelled peptide product of F4 (fluorophore in +2 position). The description is as above.

bovine serum albumin, sequence (P02769 25-607): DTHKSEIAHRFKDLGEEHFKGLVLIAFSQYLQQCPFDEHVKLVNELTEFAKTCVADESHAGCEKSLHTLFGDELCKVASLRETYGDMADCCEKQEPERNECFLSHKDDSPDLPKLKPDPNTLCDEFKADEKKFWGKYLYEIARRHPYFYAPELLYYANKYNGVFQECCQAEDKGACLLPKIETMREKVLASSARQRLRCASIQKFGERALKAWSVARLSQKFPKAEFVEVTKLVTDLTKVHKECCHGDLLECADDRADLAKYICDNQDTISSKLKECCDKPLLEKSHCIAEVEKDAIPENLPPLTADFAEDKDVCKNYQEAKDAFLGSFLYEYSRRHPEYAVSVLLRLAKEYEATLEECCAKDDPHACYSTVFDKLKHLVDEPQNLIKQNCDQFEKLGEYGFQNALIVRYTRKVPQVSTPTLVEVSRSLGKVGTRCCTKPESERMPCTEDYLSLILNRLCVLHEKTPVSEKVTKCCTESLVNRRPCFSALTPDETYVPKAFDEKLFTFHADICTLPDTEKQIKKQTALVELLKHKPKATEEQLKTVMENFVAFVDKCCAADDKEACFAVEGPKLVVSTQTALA

As to “bovine serum albumin (from UniProt P02769 25-607) (natural protein)”, the dissociation constant Kd was determined as 1.6 µM in assay [1] and 1.2 µM in assay [3]. Besides, the fold KD against the F4/BSA complex in assay [2] and in assay [4] was greater than 100 fold each time.
